Consider 8 molecules from patent publication US20020037582A1 (published 2002).

Sequences and labels used below:
B6: original 2.2412 cDNA clone in pACT-2 (nucleotides 694-2664 of FIG. 1, polypeptide of 657 amino acids) (other, not shown: large carriers)
chain: ERLAYEFKGHSLLQAAREADVTRIKKHLSLEMVNFKHPQTHETALHCAAASPYPKRKQICELLLRKGANINEKTKEFLTPLHVASEKAHNDVVEVVVKHEAKVNALDNLGQTSLHRAAYCGHLQTCRLLLSYGCDPNIISLQGFTALQMGNENVQQLLQEGISLGNSEADRQLLEAAKAGDVETVKKLCTVQSVNCRDIEGRQSTPLHFAAGYNRVSVVEYLLQHGADVHAKDKGGLVPLHNACSYGHYEVAELLVKHGAVVNVADLWKFTPLHEAAAKGKYEICKLLLQHGADPTKKNRDGNTPLDLVKDGDTDIQDLLRGDAALLDAAKKGCLARVKKLSSPDNVNCRDTQGRHSTPLHLAAGYNNLEVAEYLLQHGADVNAQDKGGLIPLHNAASYGHVDVAALLIKYNASLNATDKWAFTPLHEAAQKGRTQLCALLLAHGADPTLKNQEGQTPLDLVSADDVSALLTAAMPPSALPSCYKPQVLNGVRSPGATADALSSGPSSPSSLSAASSLDNLSGSFSELSSVVSSSGTEGASSLEKKEVPGVDFSITQFVRNLGLEHLMDIFEREQITLDVLVEMGHKELKEIGINAYGHRHKLIKGVERLISGQQGLNPYLTLNTSGSGTILIDLSPDDKEFQSVEEEMQSTVREHR

Series [1] addresses Gal4 DNA-BD-Grb14 fusion (full length Grb14, GRB14/pAS2.1) (S. cerevisiae) (UniProt P04386). Put plainly: cell-based or functional assay.
The target in series [2] is B6. Put plainly: yeast two hybrid, liquid- or filter-based beta-galactosidase assays. An excerpt: (§1) These fragments spanned the following regions: N-terminus (“N”. amino acids 1-110), the central region (“C”) encompassing the mig10 homology and the “between PH and SH2” (BPS) domain (amino acids 110-437) and the N-terminal and central regions (“N+C”, amino acids 1-437). These plasmids were individually transformed into the yeast strain Y190 (MATα, ura3-52, his3-200, ade2-101, lys2-801, trp1-901, leu2-3, 112, gal4Δ, gal80Δ, cyh^r2, LYS2::GAL1UAS-HIS3TATA-HIS3, URA3::GAL1UAS-GAL1TATA-lacZ) and expression of the appropriately sized Gal4 DNA-BD fusion proteins confirmed by Western blotting.

Series [3] has as its target Gal4 DNA-BD-Grb14 fusion (full length Grb14, GRB14/pAS2.1) (S. cerevisiae, UniProt P04386 1-147; Q14449 1-540). Put plainly: cell-based or functional assay.
The target of series [4] is T1, Gal4 DNA-BD-Grb14 fusion (full length Grb14, GRB14/pAS2.1).
T1 chain: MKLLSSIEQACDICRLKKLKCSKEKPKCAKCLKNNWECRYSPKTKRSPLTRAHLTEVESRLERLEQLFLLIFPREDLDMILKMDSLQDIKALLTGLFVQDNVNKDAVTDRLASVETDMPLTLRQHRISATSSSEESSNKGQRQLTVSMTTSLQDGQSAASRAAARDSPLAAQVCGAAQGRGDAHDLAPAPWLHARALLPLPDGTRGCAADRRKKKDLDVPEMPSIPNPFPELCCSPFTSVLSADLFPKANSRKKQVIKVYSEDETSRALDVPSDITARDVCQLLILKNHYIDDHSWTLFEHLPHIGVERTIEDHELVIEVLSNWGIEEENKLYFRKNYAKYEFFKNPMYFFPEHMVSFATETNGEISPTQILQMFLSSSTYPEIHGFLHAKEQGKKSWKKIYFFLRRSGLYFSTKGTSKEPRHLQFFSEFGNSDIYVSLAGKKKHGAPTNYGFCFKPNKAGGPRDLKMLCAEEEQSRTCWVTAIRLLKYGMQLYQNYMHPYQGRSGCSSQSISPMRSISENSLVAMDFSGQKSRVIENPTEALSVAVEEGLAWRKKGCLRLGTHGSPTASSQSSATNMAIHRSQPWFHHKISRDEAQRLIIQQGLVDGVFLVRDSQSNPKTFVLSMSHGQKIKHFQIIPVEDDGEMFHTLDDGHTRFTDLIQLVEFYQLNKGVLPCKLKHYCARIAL

Series [5] addresses B6. Kind of series: yeast two hybrid in strain Y190, liquid- or filter-based beta-galactosidase assays.
Excerpt: as §1

For the molecule “Proteosome cDNA clone in pACT2 (from UniProt P04386 768-881)”, the Mean RLU (Liquid assay), beta-galactosidase activity in series [1] is 388 RLU.

Molecule “Somatostatin receptor cDNA clone in pACT2” came in with a Mean RLU (Liquid assay), beta-galactosidase activity in series [1] of 1450 RLU.

B1: Gal4 DNA-BD fusion of the Grb14 central region (amino acids 110-437) in pAS2.1 (other, UniProt P04386 1-147, looked up)
chain: MKLLSSIEQACDICRLKKLKCSKEKPKCAKCLKNNWECRYSPKTKRSPLTRAHLTEVESRLERLEQLFLLIFPREDLDMILKMDSLQDIKALLTGLFVQDNVNKDAVTDRLASVETDMPLTLRQHRISATSSSEESSNKGQRQLTVSIKVYSEDETSRALDVPSDITARDVCQLLILKNHYIDDHSWTLFEHLPHIGVERTIEDHELVIEVLSNWGIEEENKLYFRKNYAKYEFFKNPMYFFPEHMVSFATETNGEISPTQILQMFLSSSTYPEIHGFLHAKEQGKKSWKKIYFFLRRSGLYFSTKGTSKEPRHLQFFSEFGNSDIYVSLAGKKKHGAPTNYGFCFKPNKAGGPRDLKMLCAEEEQSRTCWVTAIRLLKYGMQLYQNYMHPYQGRSGCSSQSISPMRSISENSLVAMDFSGQKSRVIENPTEALSVAVEEGLAWRKKGCLRLGTHGSPTASSQSSATNMAIHRSQ
On to B1, for which the binding result in series [2] is given as “no binding”.

B2: Nedd4 partial cDNA clone in pACT2 (CaLB domain together with the first 22 amino acids of the first WW domain) (other, human, UniProt P46934-4 1-212, looked up, not shown: large carriers)
chain: MATCAVEVFGLLEDEENSRIVRVRVIAGIGLAKKDILGASDPYVRVTLYDPMNGVLTSVQTKTIKKSLNPKWNEEILFRVHPQQHRLLFEVFDENRLTRDDFLGQVDVPLYPLPTENPRLERPYTFKDFVLHPRSHKSRVKGYLRLKMTYLPKTSGSEDDNAEQAEELEPGWVVLDQPDAACHLQQQQEPSPLPPGWEERQDILGRTYYVNH
As to B2, in series [3], the “Mean RLU (Liquid assay), beta-galactosidase activity” value (from here on “Mean RLU (Liquid assay)”) stood at 2.86e+06 RLU.

B3: L-arginine:glycine amidinotransferase cDNA clone in pACT2 (protein)
chain: ASSRNSCAADDKATEPLPKDCPVSSYNEWDPLEEVIVGRAENACVPPFTIEVKANTYEKYWPFYQKQGGHYFPKDHLKKAVAEIEEMCNILKTEGVTVRRPDPIDWSLKYKTPDFESTGLYSAMPRDILIVVGNEIIEAPMAWRSRFFEYRAYRSIIKDYFHRGAKWTTAPKPTMADELYNQDYPIHSVEDRHKLAAQGKFVTTEFEPCFDAADFIRAGRDIFAQRSQVTNYLGIEWMRRHLAPDYRVHIISFKDPNPMHIDATFNIIGPGIVLSNPDRPCHQIDLFKKAGWTIITPPTPIIPDDHPLWMSSKWLSMNVLMLDEKRVMVDANEVPIQKMFEKLGITTIKVNIRNANSLGGGFHCWTCDVRRRGTLQSYLD
Take B3: in series [4], the “Colour intensity (Filter assay), beta-galactosidase” value is on record as “+/-” and the Mean RLU (Liquid assay), beta-galactosidase activity is 861 RLU.

B4: Htk partial cDNA clone in pACT2 (intracellular region and part of the extracellular domain) (receptor, human, UniProt P54760 436-987, looked up, not shown: large carriers)
chain: AVSDIRVTRSSPSSLSLAWAVPRAPSGAVLDYEVKYHEKGAEGPSSVRFLKTSENRAELRGLKRGASYLVQVRARSEAGYGPFGQEHHSQTQLDESEGWREQLALIAGTAVVGVVLVLVVIVVAVLCLRKQSNGREAEYSDKHGQYLIGHGTKVYIDPFTYEDPNEAVREFAKEIDVSYVKIEEVIGAGEFGEVCRGRLKAPGKKESCVAIKTLKGGYTERQRREFLSEASIMGQFEHPNIIRLEGVVTNSMPVMILTEFMENGALDSFLRLNDGQFTVIQLVGMLRGIASGMRYLAEMSYVHRDLAARNILVNSNLVCKVSDFGLSRFLEENSSDPTYTSSLGGKIPIRWTAPEAIAFRKFTSASDAWSYGIVMWEVMSFGERPYWDMSNQDVINAIEQDYRLPPPPDCPTSLHQLMLDCWQKDRNARPRFPQVVSALDKMIRNPASLKIVARENGGASHPLLDQRQPHYSAFGSVGEWLRAIKMGRYEESFAAAGFGSFELVSQISAEDLLRIGVTLAGHQKKILASVQHMKSQAKPGTPGGTGGPAPQY
As to B4, the “Mean RLU (Liquid assay)” value in series [3] was found to be 186000 RLU.

B5: Gal4 DNA-BD fusion of the Grb14 N-terminus (amino acids 1-110) in pAS2.1 (other, UniProt P04386 1-147, looked up)
chain: MKLLSSIEQACDICRLKKLKCSKEKPKCAKCLKNNWECRYSPKTKRSPLTRAHLTEVESRLERLEQLFLLIFPREDLDMILKMDSLQDIKALLTGLFVQDNVNKDAVTDRLASVETDMPLTLRQHRISATSSSEESSNKGQRQLTVSMTTSLQDGQSAASRAAARDSPLAAQVCGAAQGRGDAHDLAPAPWLHARALLPLPDGTRGCAADRRKKKDLDVPEMPSIPNPFPELCCSPFTSVLSADLFPKANSRKKQVI
For the molecule B5, in series [5], the binding result is listed as “binds”.

As for B6, the “Mean RLU (Liquid assay)” value in series [3] was found to be 5.18e+06 RLU.
